For the experiment, the target named is its ligand (ligand of TR2, not identified). The experiment in a line: cell-based or functional assay.

“TR2-Fc fusion protein (TR2 extracellular domain fused to human IgG1 Fc, pcDNA3, NIH 3T3) (from UniProt Q92956 37-200)” showed an allogeneic MLR-mediated proliferation of PBMC ([3H]-thymidine incorporation) below 53%.

Source of the values: US7429646.
